# Source: patent US20050282743A1, “Molecular interactions in cells” (Arbor Vita Corporation, priority 2001, published 2005)
# Ends that are not written are not given here. Peptide text beside a SMILES is read from it. * marks the point of attachment. Biotin = O=C1N[C@H]2[C@H](CS[C@H]2CCCCC(=O)*)N1
# Legend:
# Assay in all cases: G' assay (10 uM PL peptide), results of TABLE 7 and TABLE 12
# Type in all cases: binding
# [1] = target: T1, PDZ protein (GST-PDZ fusion) (Homo sapiens, UniProt P57105); details: PDZ Outer Membrane, PDZ Domain 1
# T1 construct: made in house; host or cells: E. coli (DH5alpha, BL21 or JM109)
# T1 sequence (P57105 1-145): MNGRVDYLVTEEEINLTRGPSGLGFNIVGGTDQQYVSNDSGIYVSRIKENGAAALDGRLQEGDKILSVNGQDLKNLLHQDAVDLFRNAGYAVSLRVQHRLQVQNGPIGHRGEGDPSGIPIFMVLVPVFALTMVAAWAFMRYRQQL
# How it was run: (§1)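 Same steps as the G-zero format, apart from a peptide concentration of 10 uM in place of 20 uM in step 2. Amino-terminally biotinylated PL peptides bind GST-PDZ fusions, and retained peptide is quantified by 450 nm absorbance.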
# [2] = target: T2, PDZ protein (GST-PDZ fusion) (Homo sapiens, UniProt P78352)
# T2 construct: made in house; host or cells: E. coli (DH5alpha, BL21 or JM109)
# How it was run: as §1
# [3] = target: T3, PDZ protein (GST-PDZ fusion) (Homo sapiens, UniProt Q8NI35); details: PDZ INADL
# T3 construct: made in house; host or cells: E. coli (DH5alpha, BL21 or JM109)
# T3 sequence (Q8NI35 whole entry, the tested form may be a part): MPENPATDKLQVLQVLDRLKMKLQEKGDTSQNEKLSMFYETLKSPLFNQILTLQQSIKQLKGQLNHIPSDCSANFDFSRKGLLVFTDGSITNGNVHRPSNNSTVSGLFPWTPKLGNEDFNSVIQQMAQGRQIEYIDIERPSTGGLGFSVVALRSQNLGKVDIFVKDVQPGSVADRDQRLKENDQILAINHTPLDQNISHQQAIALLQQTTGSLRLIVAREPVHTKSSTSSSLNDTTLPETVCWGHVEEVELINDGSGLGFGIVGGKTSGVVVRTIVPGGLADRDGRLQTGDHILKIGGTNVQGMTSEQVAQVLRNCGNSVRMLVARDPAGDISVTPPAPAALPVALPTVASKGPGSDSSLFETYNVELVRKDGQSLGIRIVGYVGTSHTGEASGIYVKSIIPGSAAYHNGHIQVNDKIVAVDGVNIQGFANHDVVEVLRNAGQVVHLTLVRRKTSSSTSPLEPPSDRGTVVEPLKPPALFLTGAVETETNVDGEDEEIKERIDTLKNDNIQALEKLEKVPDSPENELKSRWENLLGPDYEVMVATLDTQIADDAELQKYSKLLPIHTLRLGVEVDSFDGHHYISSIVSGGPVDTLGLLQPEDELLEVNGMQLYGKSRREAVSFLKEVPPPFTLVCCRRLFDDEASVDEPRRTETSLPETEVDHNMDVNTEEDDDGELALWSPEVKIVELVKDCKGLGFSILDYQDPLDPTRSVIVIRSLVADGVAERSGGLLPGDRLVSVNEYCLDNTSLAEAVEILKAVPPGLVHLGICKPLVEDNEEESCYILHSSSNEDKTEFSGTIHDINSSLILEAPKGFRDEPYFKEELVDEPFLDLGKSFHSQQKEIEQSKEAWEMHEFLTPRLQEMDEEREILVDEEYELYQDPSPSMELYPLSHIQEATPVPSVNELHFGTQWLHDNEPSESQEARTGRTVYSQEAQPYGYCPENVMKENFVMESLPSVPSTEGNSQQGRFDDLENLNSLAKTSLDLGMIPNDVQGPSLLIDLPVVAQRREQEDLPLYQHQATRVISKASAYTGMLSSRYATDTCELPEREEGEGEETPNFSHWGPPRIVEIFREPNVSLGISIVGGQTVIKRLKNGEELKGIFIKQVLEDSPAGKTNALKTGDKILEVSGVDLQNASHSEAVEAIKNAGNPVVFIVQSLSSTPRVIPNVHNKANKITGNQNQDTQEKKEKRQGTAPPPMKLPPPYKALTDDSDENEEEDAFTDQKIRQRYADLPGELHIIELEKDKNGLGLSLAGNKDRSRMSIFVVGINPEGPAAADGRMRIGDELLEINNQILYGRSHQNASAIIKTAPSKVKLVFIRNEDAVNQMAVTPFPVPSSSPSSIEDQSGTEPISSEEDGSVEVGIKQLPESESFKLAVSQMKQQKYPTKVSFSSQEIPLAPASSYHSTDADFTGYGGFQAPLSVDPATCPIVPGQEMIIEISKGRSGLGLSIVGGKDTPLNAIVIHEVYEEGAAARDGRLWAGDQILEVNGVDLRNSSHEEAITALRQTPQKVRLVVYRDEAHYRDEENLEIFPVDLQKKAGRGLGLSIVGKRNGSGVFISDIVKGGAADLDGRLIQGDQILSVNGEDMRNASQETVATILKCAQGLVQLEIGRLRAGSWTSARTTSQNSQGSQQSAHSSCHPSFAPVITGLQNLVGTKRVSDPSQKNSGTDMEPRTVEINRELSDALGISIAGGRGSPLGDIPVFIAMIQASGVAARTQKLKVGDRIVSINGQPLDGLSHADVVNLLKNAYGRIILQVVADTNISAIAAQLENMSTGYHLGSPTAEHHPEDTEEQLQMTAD
# How it was run: as §1
# [4] = target: T4, PDZ protein (GST-PDZ fusion) (Homo sapiens, UniProt O14907); details: PDZ TIP1, PDZ Domain 1
# T4 construct: made in house; host or cells: E. coli (DH5alpha, BL21 or JM109)
# T4 sequence (O14907 1-124): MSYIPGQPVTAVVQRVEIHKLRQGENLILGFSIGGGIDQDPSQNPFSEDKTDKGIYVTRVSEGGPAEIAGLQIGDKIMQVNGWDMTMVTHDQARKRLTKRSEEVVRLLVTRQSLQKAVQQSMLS
# How it was run: as §1
# [5] = target: T5, PDZ protein (GST-PDZ fusion) (Homo sapiens, UniProt O15018)
# T5 construct: made in house; host or cells: E. coli (DH5alpha, BL21 or JM109)
# T5 sequence (O15018 whole entry, the tested form may be a part): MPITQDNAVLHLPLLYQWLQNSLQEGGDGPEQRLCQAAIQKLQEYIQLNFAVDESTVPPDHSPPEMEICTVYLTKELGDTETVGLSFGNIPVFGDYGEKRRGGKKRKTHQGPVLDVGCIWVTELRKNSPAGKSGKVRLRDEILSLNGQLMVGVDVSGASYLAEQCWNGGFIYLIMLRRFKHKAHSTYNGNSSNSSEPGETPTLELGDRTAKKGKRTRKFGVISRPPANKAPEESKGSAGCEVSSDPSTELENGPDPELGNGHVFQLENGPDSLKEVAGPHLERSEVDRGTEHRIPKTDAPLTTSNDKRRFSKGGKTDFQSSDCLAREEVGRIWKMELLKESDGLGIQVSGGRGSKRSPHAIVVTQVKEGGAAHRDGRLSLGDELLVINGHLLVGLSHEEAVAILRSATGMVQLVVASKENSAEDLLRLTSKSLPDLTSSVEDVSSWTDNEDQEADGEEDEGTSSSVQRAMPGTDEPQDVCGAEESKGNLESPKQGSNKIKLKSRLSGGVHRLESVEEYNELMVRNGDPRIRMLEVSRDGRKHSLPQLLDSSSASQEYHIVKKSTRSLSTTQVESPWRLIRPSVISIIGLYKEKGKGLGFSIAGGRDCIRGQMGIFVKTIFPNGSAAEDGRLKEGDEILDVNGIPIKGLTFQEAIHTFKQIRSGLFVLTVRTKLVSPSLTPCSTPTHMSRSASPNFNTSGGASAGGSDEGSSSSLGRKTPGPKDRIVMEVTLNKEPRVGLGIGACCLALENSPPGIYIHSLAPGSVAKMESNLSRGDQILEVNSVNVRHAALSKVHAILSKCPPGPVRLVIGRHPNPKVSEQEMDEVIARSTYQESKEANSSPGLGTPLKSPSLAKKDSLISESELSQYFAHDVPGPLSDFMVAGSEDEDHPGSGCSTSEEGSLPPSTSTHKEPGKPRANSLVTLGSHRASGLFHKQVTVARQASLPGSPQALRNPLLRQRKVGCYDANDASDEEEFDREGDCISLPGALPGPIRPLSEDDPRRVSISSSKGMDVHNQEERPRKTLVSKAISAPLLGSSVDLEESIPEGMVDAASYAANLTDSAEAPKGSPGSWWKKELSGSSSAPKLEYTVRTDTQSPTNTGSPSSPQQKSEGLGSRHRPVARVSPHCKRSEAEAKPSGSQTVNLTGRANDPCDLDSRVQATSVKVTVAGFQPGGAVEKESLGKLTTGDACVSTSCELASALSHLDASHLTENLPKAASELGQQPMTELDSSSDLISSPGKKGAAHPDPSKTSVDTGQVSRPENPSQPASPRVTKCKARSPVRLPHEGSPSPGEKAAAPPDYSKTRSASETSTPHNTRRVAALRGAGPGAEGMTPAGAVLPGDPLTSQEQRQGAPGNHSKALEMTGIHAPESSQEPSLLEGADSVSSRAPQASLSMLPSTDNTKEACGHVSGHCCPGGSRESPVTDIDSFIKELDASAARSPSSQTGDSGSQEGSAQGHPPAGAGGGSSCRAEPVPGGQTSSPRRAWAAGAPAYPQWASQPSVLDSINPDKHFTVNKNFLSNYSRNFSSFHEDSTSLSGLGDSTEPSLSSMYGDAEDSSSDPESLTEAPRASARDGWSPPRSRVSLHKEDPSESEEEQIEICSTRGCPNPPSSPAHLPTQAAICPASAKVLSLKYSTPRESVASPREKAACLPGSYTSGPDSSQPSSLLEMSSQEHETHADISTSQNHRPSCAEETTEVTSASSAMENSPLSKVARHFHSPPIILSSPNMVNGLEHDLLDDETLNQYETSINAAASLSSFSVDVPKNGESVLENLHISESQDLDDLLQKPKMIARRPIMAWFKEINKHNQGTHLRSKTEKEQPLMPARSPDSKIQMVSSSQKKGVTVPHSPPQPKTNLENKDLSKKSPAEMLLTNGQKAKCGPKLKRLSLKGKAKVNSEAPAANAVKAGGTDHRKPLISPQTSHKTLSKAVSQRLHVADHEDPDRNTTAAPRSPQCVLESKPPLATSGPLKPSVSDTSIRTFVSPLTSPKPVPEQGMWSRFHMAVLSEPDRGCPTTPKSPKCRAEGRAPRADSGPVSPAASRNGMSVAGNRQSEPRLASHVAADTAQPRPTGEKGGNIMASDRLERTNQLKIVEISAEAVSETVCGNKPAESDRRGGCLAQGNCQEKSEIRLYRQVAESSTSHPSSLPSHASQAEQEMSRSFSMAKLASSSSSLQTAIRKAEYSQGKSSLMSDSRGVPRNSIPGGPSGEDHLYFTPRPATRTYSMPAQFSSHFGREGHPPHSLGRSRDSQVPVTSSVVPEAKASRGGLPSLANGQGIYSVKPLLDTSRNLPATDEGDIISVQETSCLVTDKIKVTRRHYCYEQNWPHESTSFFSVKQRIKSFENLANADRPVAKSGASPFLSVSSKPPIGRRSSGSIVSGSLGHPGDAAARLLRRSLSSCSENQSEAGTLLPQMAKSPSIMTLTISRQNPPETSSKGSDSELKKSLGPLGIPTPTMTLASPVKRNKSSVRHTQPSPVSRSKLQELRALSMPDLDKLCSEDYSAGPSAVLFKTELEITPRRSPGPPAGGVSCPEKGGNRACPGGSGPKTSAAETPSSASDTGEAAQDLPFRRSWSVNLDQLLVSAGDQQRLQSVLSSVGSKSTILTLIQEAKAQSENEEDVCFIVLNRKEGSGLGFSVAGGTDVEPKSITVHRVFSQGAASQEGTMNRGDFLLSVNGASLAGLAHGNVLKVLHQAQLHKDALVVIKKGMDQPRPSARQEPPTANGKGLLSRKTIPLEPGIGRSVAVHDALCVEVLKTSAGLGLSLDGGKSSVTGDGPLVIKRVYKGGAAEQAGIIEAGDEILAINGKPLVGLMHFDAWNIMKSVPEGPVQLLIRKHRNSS
# How it was run: as §1
# [6] = target: T6, PDZ protein (GST-PDZ fusion) (Homo sapiens, UniProt Q12959)
# T6 construct: made in house; host or cells: E. coli (DH5alpha, BL21 or JM109)
# How it was run: as §1
# [7] = target: T7, PDZ protein (GST-PDZ fusion) (Homo sapiens, UniProt Q92796); details: PDZ NeDLG
# T7 construct: made in house; host or cells: E. coli (DH5alpha, BL21 or JM109)
# T7 sequence (Q92796 1-817): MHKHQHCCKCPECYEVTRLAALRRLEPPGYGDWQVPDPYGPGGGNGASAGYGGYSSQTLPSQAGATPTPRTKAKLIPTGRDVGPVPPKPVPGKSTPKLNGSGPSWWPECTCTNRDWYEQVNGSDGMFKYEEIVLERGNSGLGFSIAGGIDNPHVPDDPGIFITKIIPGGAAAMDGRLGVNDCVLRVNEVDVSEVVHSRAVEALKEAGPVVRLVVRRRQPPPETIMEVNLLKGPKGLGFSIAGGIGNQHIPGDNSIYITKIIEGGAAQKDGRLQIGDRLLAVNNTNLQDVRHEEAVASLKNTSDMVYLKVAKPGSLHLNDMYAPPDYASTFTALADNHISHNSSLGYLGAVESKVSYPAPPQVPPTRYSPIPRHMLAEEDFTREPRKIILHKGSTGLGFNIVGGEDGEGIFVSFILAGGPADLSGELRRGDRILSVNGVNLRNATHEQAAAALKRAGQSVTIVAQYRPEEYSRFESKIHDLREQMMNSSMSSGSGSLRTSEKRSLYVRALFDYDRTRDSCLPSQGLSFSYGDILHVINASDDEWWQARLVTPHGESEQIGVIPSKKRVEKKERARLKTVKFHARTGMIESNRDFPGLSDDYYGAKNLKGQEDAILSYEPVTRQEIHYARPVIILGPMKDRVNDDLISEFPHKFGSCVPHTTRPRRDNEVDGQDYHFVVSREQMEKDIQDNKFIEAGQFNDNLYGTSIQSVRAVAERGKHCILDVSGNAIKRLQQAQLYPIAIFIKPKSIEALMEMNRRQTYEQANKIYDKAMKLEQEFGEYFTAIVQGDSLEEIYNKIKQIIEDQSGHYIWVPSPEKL
# How it was run: as §1
# [8] = target: T8, PDZ protein (GST-PDZ fusion) (Homo sapiens, UniProt Q15700)
# T8 construct: made in house; host or cells: E. coli (DH5alpha, BL21 or JM109)
# How it was run: as §1
# [9] = target: T9, PDZ protein (GST-PDZ fusion) (Homo sapiens, UniProt Q9NZN5); details: PDZ KIAA0382, PDZ Domain 1
# T9 construct: made in house; host or cells: E. coli (DH5alpha, BL21 or JM109)
# How it was run: as §1
Compound,Classification [1],Classification ([3]; PDZ Domain 8),Classification [4],"Classification ([5]; PDZ AIPC, PDZ Domain 1)",Classification [9],other results
CC(C)C[C@H](NC(=O)[C@H](C)NC(=O)[C@H](CO)NC(=O)CNC(=O)[C@@H](NC(=O)CCCC[C@@H]1SC[C@@H]2NC(=O)N[C@@H]21)[C@@H](C)O)C(=O)N[C@@H](CCC(N)=O)C(=O)N[C@@H](C)C(=O)N[C@@H](Cc1c[nH]c2ccccc12)C(=O)N[C@@H](CCCNC(=N)N)C(=O)N[C@@H](Cc1c[nH]cn1)C(=O)N[C@H](C(=O)N[C@@H](CO)C(=O)N[C@@H](CCCNC(=N)N)C(=O)N[C@@H](CCC(N)=O)C(=O)N[C@@H](C)C(=O)N[C@H](C(=O)N[C@@H](CCC(=O)O)C(=O)N[C@@H](CO)C(=O)N[C@H](C(=O)N[C@H](C(=O)O)C(C)C)[C@@H](C)O)[C@@H](C)O)[C@@H](C)O [HPV E6 #66 (modified)] (Biotin-TGSALQAWRHTSRQATESTV-OH; C-terminus assumed),5 (A450 nm of 4 more than 2× repeated),1 (A450 nm 0-1),5 (A450 nm of 4 more than 2× repeated),1 (A450 nm 0-1),,"Classification ([2]; PDZ PSD95, PDZ Domain 1): 4 (A450 nm 3-4); Classification ([2]; PDZ PSD95, PDZ Domain 1, 2, 3): 5 (A450 nm of 4 more than 2× repeated); Classification ([2]; PDZ PSD95, PDZ Domain 3): 1 (A450 nm 0-1); Classification ([6]; PDZ DLG1, PDZ Domain 1): 4 (A450 nm 3-4); Classification ([6]; PDZ DLG1, PDZ Domain 1, 2): 5 (A450 nm of 4 more than 2× repeated); Classification ([6]; PDZ DLG1, PDZ Domain 2): 5 (A450 nm of 4 more than 2× repeated); Classification ([7]; PDZ Domain 1): 1 (A450 nm 0-1); Classification ([7]; PDZ Domain 1, 2): 5 (A450 nm of 4 more than 2× repeated); Classification ([7]; PDZ Domain 2): 4 (A450 nm 3-4); Classification ([8]; PDZ DLG2, PDZ Domain 1): 1 (A450 nm 0-1); Classification ([8]; PDZ DLG2, PDZ Domain 2): 5 (A450 nm of 4 more than 2× repeated)"
CC[C@H](C)[C@H](NC(=O)CNC(=O)[C@H](CO)NC(=O)[C@H](Cc1ccccc1)NC(=O)[C@@H](NC(=O)[C@H](CS)NC(=O)CNC(=O)CNC(=O)[C@H](C)NC(=O)[C@@H]1CCCN1C(=O)[C@@H](NC(=O)[C@@H]1CCCN1C(=O)CCCC[C@@H]1SC[C@@H]2NC(=O)N[C@@H]21)[C@@H](C)CC)[C@@H](C)O)C(=O)N[C@@H](Cc1ccccc1)C(=O)N1CCC[C@H]1C(=O)N[C@H](C(=O)N[C@@H](CC(C)C)C(=O)N[C@H](C(=O)N[C@@H](CO)C(=O)N1CCC[C@H]1C(=O)N[C@@H](CC(C)C)C(=O)O)[C@@H](C)O)[C@@H](C)O [KIA 1481] (Biotin-PIPAGGCTFSGIFPTLTSPL-OH; C-terminus assumed),,,2 (A450 nm 1-2),,5 (A450 nm of 4 more than 2× repeated),Classification ([3]; PDZ Domain 5): 1 (A450 nm 0-1)
CC(C)C[C@H](NC(=O)[C@H](C)NC(=O)[C@@H](NC(=O)[C@@H](NC(=O)[C@H](Cc1c[nH]cn1)NC(=O)[C@H](CC(C)C)NC(=O)CNC(=O)[C@H](CCC(N)=O)NC(=O)CNC(=O)CNC(=O)[C@H](C)NC(=O)[C@H](C)NC(=O)[C@H](CCCNC(=N)N)NC(=O)[C@H](C)NC(=O)[C@H](CO)NC(=O)[C@H](CC(=O)O)NC(=O)[C@H](CC(=O)O)NC(=O)[C@H](Cc1c[nH]c2ccccc12)NC(=O)[C@H](C)NC(=O)CCCC[C@@H]1SC[C@@H]2NC(=O)N[C@@H]21)C(C)C)[C@@H](C)O)C(=O)O [LPAP] (Biotin-AWDDSARAAGGQGLHVTAL-OH; C-terminus assumed),,,,,5 (A450 nm of 4 more than 2× repeated),
CC[C@H](C)[C@H](NC(=O)[C@H](CO)NC(=O)[C@H](CCC(=O)O)NC(=O)[C@H](Cc1ccc(O)cc1)NC(=O)[C@H](CC(=O)O)NC(=O)[C@H](CC(N)=O)NC(=O)[C@H](CCC(=O)O)NC(=O)[C@H](CCCCN)NC(=O)CCCC[C@@H]1SC[C@@H]2NC(=O)N[C@@H]21)C(=O)N[C@@H](CO)C(=O)N[C@@H](CC(=O)O)C(=O)N[C@@H](CC(C)C)C(=O)N[C@@H](CCC(N)=O)C(=O)N[C@@H](CCC(N)=O)C(=O)NCC(=O)N[C@@H](CCCNC(=N)N)C(=O)N[C@@H](CC(=O)O)C(=O)N[C@H](C(=O)N[C@H](C(=O)N[C@@H](CCCNC(=N)N)C(=O)N[C@@H](CC(C)C)C(=O)O)[C@@H](C)O)[C@@H](C)CC [PAG] (Biotin-KENDYESISDLQQGRDITRL-OH; C-terminus assumed),2 (A450 nm 1-2),,,,1 (A450 nm 0-1),
APC—adenomatous polyposis coli protein (ESSGTQSPKRHSGSYLVTSV),2 (A450 nm 1-2),2 (A450 nm 1-2),3 (A450 nm 2-3),,1 (A450 nm 0-1),"Classification ([2]; PDZ PSD95, PDZ Domain 1, 2, 3): 5 (A450 nm of 4 more than 2× repeated); Classification ([6]; PDZ DLG1, PDZ Domain 1, 2): 5 (A450 nm of 4 more than 2× repeated); Classification ([7]; PDZ Domain 1, 2): 4 (A450 nm 3-4)"
LASKSAEEGKQIPDSLSTDL (Biotin-LASKSAEEGKQIPDSLSTDL) [Dock2],,,,,1 (A450 nm 0-1),Classification ([3]; PDZ Domain 3): 1 (A450 nm 0-1)
LNETTETQRTLLNGDLQTSI (Biotin-LNETTETQRTLLNGDLQTSI) [SSTR2 (somatostatin recepor 2)],,,,,1 (A450 nm 0-1),
PYSELNYETSHYPASPDSWV (Biotin-PYSELNYETSHYPASPDSWV) [catenin - delta 2],5 (A450 nm of 4 more than 2× repeated),2 (A450 nm 1-2),3 (A450 nm 2-3),2 (A450 nm 1-2),,"Classification ([2]; PDZ PSD95, PDZ Domain 1): 1 (A450 nm 0-1); Classification ([2]; PDZ PSD95, PDZ Domain 1, 2, 3): 2 (A450 nm 1-2); Classification ([3]; PDZ Domain 5): 1 (A450 nm 0-1); Classification ([6]; PDZ DLG1, PDZ Domain 1): 1 (A450 nm 0-1); Classification ([6]; PDZ DLG1, PDZ Domain 1, 2): 3 (A450 nm 2-3); Classification ([6]; PDZ DLG1, PDZ Domain 2): 2 (A450 nm 1-2); Classification ([7]; PDZ Domain 3): 1 (A450 nm 0-1); Classification ([8]; PDZ DLG2, PDZ Domain 2): 1 (A450 nm 0-1)"
VHDAESSDEDGYDWGPATDL (Biotin-VHDAESSDEDGYDWGPATDL) [zona occludens 3 (ZO-3)],,,,1 (A450 nm 0-1),2 (A450 nm 1-2),

# Continued, in another order:
Classification [1],Classification ([3]; PDZ Domain 8),Classification [4],"Classification ([5]; PDZ AIPC, PDZ Domain 1)",Classification [9],Compound,other results
,1 (A450 nm 0-1),,1 (A450 nm 0-1),1 (A450 nm 0-1),CC[C@H](C)[C@H](NC(=O)[C@H](Cc1ccc(O)cc1)NC(=O)[C@@H](NC(=O)[C@@H]1CCCN1C(=O)[C@H](CCC(N)=O)NC(=O)[C@H](CCC(=O)O)NC(=O)[C@H](CCC(N)=O)NC(=O)[C@H](C)NC(=O)[C@@H](NC(=O)[C@H](CC(C)C)NC(=O)[C@H](CC(C)C)NC(=O)[C@H](CCCNC(=N)N)NC(=O)[C@H](Cc1ccc(O)cc1)NC(=O)[C@H](CCSC)NC(=O)[C@H](C)NC(=O)[C@H](C)NC(=O)[C@@H]1CCCN1C(=O)[C@H](CCSC)NC(=O)[C@@H](NC(=O)[C@H](CCCCN)NC(=O)CCCC[C@@H]1SC[C@@H]2NC(=O)N[C@@H]21)[C@@H](C)O)[C@@H](C)O)C(C)C)C(=O)O [MINT-1] (Biotin-KTMPAAMYRLLTAQEQPVYI-OH; C-terminus assumed),"Classification ([5]; PDZ KIAA0300, PDZ Domain 1): 4 (A450 nm 3-4)"
,,,1 (A450 nm 0-1),1 (A450 nm 0-1),KTMPAAMFRLLTGQETPLYI (Biotin-KTMPAAMFRLLTGQETPLYI) [MINT-2],"Classification ([5]; PDZ KIAA0300, PDZ Domain 1): 3 (A450 nm 2-3)"
,,,,1 (A450 nm 0-1),QATSRNGHSARQHVVADTEL (Biotin-QATSRNGHSARQHVVADTEL) [CD34],
